Reference: PMC2112662

Biological target: type IV (basement membrane) collagen of Np cells (Peak II) (mouse (endogenous in Np fibrosarcoma cells))
Experiment: radioligand binding

laminin (from the EHS (Engelbreth-Holm-Swarm) sarcoma) (from UniProt P19137 25-3083; P02469 22-1786; P02468 34-1607) (complex)
laminin specifically bound (cpm) at 50 ng 125I-laminin added: 0 cpm | laminin specifically bound (cpm) at 500 ng 125I-laminin added: 9250 cpm
